Reference: PMC9482650, “Quantitative fragmentomics allow affinity mapping of interactomes” (Nature Communications, 2022)

Assays:
Assay in all cases: holdup assay
Parameters in all cases: key: below the threshold = too weak to quantify, mostly under pKd 3.1 to 4
Conditions in all cases: plain residues with an end cap or a label only (N-terminal biotin on a linker: ado-ado)
[1] = biological target: NHERF2_2, Q15599
[2] = biological target: T1, HTRA3, P83110
T1 sequence (P83110 354-453, limits assumed, looked up): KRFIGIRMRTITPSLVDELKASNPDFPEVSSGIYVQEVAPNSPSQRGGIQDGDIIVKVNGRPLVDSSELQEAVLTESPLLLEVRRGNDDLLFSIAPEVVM

[3] = biological target: NOS1, P29475
[4] = biological target: MAST1, Q9Y2H9
[5] = biological target: T2, HTRA4, P83105
T2 sequence (P83105 378-476, limits assumed, looked up): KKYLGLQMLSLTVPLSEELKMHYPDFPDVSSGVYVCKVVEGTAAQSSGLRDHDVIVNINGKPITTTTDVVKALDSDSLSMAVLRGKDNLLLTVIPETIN

[6] = biological target: Inadl_3, Q8NI35
[7] = biological target: T3, PARD3B_1, Q8TEW8
T3 sequence (Q8TEW8 196-299, limits assumed, looked up): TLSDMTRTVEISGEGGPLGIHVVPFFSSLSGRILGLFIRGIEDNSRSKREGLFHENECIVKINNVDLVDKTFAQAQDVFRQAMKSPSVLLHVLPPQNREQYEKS

[8] = biological target: T4, SNTG2, Q9NY99
T4 sequence (Q9NY99 68-166, limits assumed, looked up): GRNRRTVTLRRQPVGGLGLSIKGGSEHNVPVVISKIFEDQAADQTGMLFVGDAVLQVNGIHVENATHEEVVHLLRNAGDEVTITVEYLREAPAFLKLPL

[9] = biological target: Inadl_4, Q8NI35
[10] = biological target: T5, SYNJ2BP, P57105
T5 sequence (P57105 8-110, limits assumed, looked up): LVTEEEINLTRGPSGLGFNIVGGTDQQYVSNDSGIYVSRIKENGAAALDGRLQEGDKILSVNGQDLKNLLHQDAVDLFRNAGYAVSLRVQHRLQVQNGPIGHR

[11] = biological target: T6, SNTA1, Q13424
T6 sequence (Q13424 82-180, limits assumed, looked up): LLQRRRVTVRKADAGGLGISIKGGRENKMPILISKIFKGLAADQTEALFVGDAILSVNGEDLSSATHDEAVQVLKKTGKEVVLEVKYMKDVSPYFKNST

[12] = biological target: ARHGEF12, Q9NZN5-2
[13] = biological target: T7, MPP7, Q5T2T1
T7 sequence (Q5T2T1 134-230, limits assumed, looked up): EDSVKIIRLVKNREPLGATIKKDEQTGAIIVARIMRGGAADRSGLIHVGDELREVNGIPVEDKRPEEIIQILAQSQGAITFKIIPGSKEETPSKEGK

[14] = biological target: T8, LNX2_3, Q8N448
T8 sequence (Q8N448 463-564, limits assumed, looked up): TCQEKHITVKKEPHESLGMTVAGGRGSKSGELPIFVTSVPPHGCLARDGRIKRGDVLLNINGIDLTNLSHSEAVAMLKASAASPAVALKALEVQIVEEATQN

[15] = biological target: Inadl_9, Q8NI35
[16] = biological target: T9, CARD11, Q9BXL7
T9 sequence (Q9BXL7 662-765, limits assumed, looked up): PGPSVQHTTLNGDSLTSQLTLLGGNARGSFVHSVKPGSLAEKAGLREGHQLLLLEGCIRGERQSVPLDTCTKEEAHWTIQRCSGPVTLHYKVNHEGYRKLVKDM

[17] = biological target: SCRIB_2, Q14160
[18] = biological target: DLG2_3, Q15700
[19] = biological target: AHNAK1, Q09666
[20] = biological target: IL16_1, Q14005
[21] = biological target: MAGI2_5, Q86UL8
[22] = biological target: NHERF4_1, Q86UT5-2
[23] = biological target: T10, SNTG1, Q9NSN8
T10 sequence (Q9NSN8 52-150, limits assumed, looked up): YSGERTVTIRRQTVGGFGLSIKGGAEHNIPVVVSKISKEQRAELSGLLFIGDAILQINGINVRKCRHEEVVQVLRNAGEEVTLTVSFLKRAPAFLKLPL

[24] = biological target: TJP1_2, Q07157
[25] = biological target: T11, PCLO, Q9Y6V0
T11 sequence (Q9Y6V0 4491-4600, limits assumed, looked up): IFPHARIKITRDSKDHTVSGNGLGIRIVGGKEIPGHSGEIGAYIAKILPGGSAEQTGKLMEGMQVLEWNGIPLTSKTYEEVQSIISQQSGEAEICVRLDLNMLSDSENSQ

[26] = biological target: PARD3_3, Q8TEW0
PARD3_3, Q8TEW0, sequence (Q8TEW0 582-685): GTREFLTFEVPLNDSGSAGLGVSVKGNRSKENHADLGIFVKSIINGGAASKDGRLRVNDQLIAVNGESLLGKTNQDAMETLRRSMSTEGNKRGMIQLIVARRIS

ARHGEF12, Q9NZN5-2, sequence (Q9NZN5 other isoform, or with tags, fused parts or gaps): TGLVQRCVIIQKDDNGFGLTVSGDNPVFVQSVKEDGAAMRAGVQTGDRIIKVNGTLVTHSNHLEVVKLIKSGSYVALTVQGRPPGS
MAGI2_5, Q86UL8, sequence (Q86UL8 915-1017): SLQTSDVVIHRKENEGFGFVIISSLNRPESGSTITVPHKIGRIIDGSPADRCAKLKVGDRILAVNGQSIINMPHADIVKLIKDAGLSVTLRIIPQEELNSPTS
IL16_1, Q14005, sequence (Q14005 210-306): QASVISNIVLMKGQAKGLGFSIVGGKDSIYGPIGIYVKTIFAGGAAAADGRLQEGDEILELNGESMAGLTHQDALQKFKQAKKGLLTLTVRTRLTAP
SCRIB_2, Q14160, sequence (Q14160 857-960): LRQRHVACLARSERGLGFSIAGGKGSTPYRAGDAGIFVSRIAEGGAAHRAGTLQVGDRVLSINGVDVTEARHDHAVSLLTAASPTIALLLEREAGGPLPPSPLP
TJP1_2, Q07157, sequence (Q07157 181-274): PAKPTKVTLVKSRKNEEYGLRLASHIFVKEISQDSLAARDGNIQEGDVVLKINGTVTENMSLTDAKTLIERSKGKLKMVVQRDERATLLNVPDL
MAST1, Q9Y2H9, sequence (Q9Y2H9 962-1065): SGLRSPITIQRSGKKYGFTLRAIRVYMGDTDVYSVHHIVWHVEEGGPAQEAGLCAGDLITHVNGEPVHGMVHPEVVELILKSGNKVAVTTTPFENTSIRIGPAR
NHERF2_2, Q15599, sequence (Q15599 142-238): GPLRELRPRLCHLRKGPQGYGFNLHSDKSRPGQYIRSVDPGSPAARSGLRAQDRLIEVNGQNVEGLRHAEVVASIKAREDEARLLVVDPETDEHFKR
NHERF4_1, Q86UT5-2, sequence (Q86UT5 other isoform, or with tags, fused parts or gaps): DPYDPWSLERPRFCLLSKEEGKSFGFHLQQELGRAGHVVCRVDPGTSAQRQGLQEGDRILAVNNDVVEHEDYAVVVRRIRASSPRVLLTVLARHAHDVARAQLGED
NOS1, P29475, sequence (P29475 9-101): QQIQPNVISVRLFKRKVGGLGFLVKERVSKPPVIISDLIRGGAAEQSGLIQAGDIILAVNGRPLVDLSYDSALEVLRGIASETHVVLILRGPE
AHNAK1, Q09666, sequence (Q09666 4-100): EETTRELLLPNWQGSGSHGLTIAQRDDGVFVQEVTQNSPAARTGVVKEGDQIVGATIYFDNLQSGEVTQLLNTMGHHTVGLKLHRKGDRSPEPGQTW
Inadl_3, Q8NI35, sequence (Q8NI35 359-469): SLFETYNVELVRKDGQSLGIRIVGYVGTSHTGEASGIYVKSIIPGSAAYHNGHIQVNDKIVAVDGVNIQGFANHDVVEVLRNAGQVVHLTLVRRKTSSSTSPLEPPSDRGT
Inadl_4, Q8NI35, sequence (Q8NI35 547-651): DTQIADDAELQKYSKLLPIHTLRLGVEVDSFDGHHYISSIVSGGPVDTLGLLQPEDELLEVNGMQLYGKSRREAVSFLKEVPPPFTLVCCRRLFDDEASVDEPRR
Inadl_9, Q8NI35, sequence (Q8NI35 1530-1615): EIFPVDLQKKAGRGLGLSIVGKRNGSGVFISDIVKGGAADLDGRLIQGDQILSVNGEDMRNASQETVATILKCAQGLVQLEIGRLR

B1: CRHR1, P34998 (peptide)
chain: FHSIKQSTAV
Question: For B1, which pKd [1] is on record?
Answer: The pKd was “below the threshold”.

Question: What about the pKd [2] of the same binder?
Answer: The pKd was “below the threshold”.

Question: And the pKd [3]?
Answer: Its pKd is 4.19.

Question: And the pKd [4]?
Answer: The pKd was 4.74.

Question: And the pKd [5]?
Answer: The pKd was “below the threshold”.

Question: And the pKd [6]?
Answer: Its pKd is “below the threshold”.

Question: What about the pKd [7] of the same binder?
Answer: The pKd was “below the threshold”.

Question: And the pKd [8]?
Answer: Its pKd is 3.6.

Question: And the pKd [9]?
Answer: Its pKd is “below the threshold”.

Question: And the pKd [10]?
Answer: Its pKd is 5.21.

Question: What about the pKd [11] of the same binder?
Answer: Its pKd is 3.71.

Question: And the pKd [12]?
Answer: The pKd was 4.63.

Question: And the pKd [13]?
Answer: Its pKd is “below the threshold”.

Question: And the pKd [14]?
Answer: Its pKd is “below the threshold”.

Question: What about the pKd [15] of the same binder?
Answer: The pKd was 3.83.

Question: What about the pKd [16] of the same binder?
Answer: Its pKd is “below the threshold”.

Question: And the pKd [17]?
Answer: Its pKd is 4.18.

Question: And the pKd [18]?
Answer: Its pKd is 4.54.

Question: And the pKd [19]?
Answer: The pKd was “below the threshold”.

Question: And the pKd [20]?
Answer: Its pKd is “below the threshold”.

Question: And the pKd [21]?
Answer: Its pKd is 4.38.

Question: And the pKd [22]?
Answer: The pKd was 3.81.

Question: And the pKd [23]?
Answer: The pKd was 3.64.

Question: What about the pKd [24] of the same binder?
Answer: Its pKd is “below the threshold”.

Question: And the pKd [25]?
Answer: Its pKd is “below the threshold”.

Question: And the pKd [26]?
Answer: The pKd was “below the threshold”.
